# Experiments:
# Assay in all cases: cell-based or functional assay
# [1] = molecular target: HIV-1 Env of isolate 92RW024 (clade A pseudovirus) (HIV-1)
# [2] = molecular target: HIV-1 Env of isolate APV_17, clade B, on pseudovirus (HIV-1)
# [3] = molecular target: HIV-1 Env of isolate MGRM-Chronic-B-002, clade B, on pseudovirus (HIV-1)
# [4] = molecular target: HIV-1 Env of isolate MGRM-D-024 (clade D pseudovirus) (HIV-1)
# [5] = molecular target: HIV-1 Env of isolate QH0692.42 (Acute), clade B, on pseudovirus (HIV-1)
# [6] = molecular target: HIV-1 Env of pseudovirus MGRM-AE-001 (clade CRF01_AE) (HIV-1)
# [7] = molecular target: HIV-1 Env of pseudovirus MGRM-AE-005 (clade CRF01_AE) (HIV-1)
# [8] = molecular target: HIV-1 Env of pseudovirus MGRM-AG-012 (clade CRF_AG) (HIV-1)
# [9] = molecular target: HIV-1 Env of pseudovirus MGRM-Chronic-B-020 (HIV-1)
# [10] = molecular target: HIV-1 Env of pseudovirus MGRM-Chronic-B-024 (HIV-1)
# [11] = molecular target: HIV-1 Env of pseudovirus MGRM-G-011 (HIV-1, clade G isolate MGRM-G-011)
# [12] = molecular target: HIV-1 IAVI-C18 envelope glycoprotein (Env) on pseudovirus (HIV-1)
# [13] = molecular target: HIV-1 NL43 envelope glycoprotein (Env) on pseudovirus (HIV-1)
# [14] = molecular target: HIV-1 envelope glycoprotein (Env) of isolate 92RW008, clade A (HIV-1)
# Sequence of 1443_C16 (PG16) (TCN-116) (antibody) (VH): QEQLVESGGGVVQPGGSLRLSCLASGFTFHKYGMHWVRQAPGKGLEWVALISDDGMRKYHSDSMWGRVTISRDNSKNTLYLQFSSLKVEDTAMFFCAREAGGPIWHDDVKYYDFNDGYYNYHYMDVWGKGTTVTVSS
# Sequence of 1443_C16 (PG16) (TCN-116) (antibody) (VL): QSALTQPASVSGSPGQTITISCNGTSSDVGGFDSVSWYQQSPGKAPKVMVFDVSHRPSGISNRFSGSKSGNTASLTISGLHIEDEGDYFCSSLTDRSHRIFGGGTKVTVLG
Substance,"IC50 (µg/ml), pseudovirus neutralization [1]","IC50 (µg/ml), pseudovirus neutralization [2]","IC50 (µg/ml), pseudovirus neutralization [3]","IC50 (µg/ml), pseudovirus neutralization [4]","IC50 (µg/ml), pseudovirus neutralization [5]",IC50 [6],IC50 [7],IC50 [8],"IC50 (µg/ml), pseudovirus neutralization [9]","IC50 (µg/ml), pseudovirus neutralization [10]","IC50 (µg/ml), pseudovirus neutralization [11]","IC50, pseudovirus neutralization [12]","IC50, pseudovirus neutralization [13]","IC50 (µg/ml), pseudovirus neutralization [14]"
2F5 (antibody),8.22 µg/mL,4.61 µg/mL,1.25 µg/mL,> 50 µg/mL,5.42 µg/mL,0.29 mg/L,0.14 mg/L,0.33 mg/L,0.78 µg/mL,> 50 µg/mL,1.16 µg/mL,> 50 mg/L,2.41 mg/L,10.4 µg/mL
2G12 (antibody),> 50 µg/mL,> 50 µg/mL,> 50 µg/mL,> 50 µg/mL,4.39 µg/mL,> 50 mg/L,> 50 mg/L,1.94 mg/L,0.2 µg/mL,> 50 µg/mL,> 50 µg/mL,> 50 mg/L,0.75 mg/L,22.5 µg/mL
4E10 (antibody),8.88 µg/mL,10.5 µg/mL,2.19 µg/mL,3.6 µg/mL,12.7 µg/mL,0.85 mg/L,0.47 mg/L,0.86 mg/L,2.45 µg/mL,9.19 µg/mL,1.44 µg/mL,> 50 mg/L,4.95 mg/L,14.5 µg/mL
1443_C16 (PG16) (TCN-116) (antibody),0.08 µg/mL,24.8 µg/mL,3.06 µg/mL,0.02 µg/mL,> 50 µg/mL,4.33 mg/L,0.02 mg/L,25.1 mg/L,> 50 µg/mL,0.01 µg/mL,0.04 µg/mL,0.0067 mg/L,< 0.0025 mg/L,0.002 µg/mL
1495_C14 (PGC14) (antibody),> 50 µg/mL,> 50 µg/mL,> 50 µg/mL,> 50 µg/mL,> 50 µg/mL,> 50 mg/L,> 50 mg/L,> 50 mg/L,> 50 µg/mL,> 50 µg/mL,> 50 µg/mL,> 50 mg/L,0.373 mg/L,37 µg/mL
b12 (antibody),> 50 µg/mL,> 50 µg/mL,0.86 µg/mL,5.92 µg/mL,0.73 µg/mL,25.9 mg/L,0.63 mg/L,10.4 mg/L,6.16 µg/mL,> 50 µg/mL,> 50 µg/mL,> 50 mg/L,0.06 mg/L,9.46 µg/mL

# — US20250320281A1
